Source: patent US20240084003A1 (SIMCERE ZAIMING PHARMACEUTICAL, published 2024)

T1: human CD22, endogenous on Raji cells (human, UniProt P20273 20-847)
T1 construct: whole, on cells; Endogenous protein of the Raji cell line
T1 sequence (looked up): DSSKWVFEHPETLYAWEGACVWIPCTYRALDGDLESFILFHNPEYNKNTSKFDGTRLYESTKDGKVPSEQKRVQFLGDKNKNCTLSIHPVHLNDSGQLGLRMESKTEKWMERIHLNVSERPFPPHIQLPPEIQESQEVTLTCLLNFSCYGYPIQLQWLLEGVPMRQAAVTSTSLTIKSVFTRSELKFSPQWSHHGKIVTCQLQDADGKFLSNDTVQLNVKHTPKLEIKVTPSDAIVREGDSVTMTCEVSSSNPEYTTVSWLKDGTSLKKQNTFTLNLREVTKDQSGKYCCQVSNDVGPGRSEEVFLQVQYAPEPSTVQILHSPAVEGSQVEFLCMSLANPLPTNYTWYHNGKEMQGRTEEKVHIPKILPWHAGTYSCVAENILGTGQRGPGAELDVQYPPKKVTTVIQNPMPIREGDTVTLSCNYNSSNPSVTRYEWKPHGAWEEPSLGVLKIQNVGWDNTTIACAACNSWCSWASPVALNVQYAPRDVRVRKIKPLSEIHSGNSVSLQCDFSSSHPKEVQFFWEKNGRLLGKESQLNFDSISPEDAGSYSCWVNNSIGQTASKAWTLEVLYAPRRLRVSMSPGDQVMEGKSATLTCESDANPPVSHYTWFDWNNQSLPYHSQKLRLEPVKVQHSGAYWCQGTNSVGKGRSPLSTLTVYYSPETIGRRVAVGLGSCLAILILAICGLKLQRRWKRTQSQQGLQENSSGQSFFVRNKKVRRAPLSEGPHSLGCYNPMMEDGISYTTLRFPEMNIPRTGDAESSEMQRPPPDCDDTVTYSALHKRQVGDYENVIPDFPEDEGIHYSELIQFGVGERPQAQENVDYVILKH

T2: human CD22, full length, on CHO-K1-human CD22 2C4 cells (human, UniProt P20273 20-847)
T2 construct: Full-length human CD22 (NCBI NP_001762.2) stably transfected into CHO-K1
T2 sequence: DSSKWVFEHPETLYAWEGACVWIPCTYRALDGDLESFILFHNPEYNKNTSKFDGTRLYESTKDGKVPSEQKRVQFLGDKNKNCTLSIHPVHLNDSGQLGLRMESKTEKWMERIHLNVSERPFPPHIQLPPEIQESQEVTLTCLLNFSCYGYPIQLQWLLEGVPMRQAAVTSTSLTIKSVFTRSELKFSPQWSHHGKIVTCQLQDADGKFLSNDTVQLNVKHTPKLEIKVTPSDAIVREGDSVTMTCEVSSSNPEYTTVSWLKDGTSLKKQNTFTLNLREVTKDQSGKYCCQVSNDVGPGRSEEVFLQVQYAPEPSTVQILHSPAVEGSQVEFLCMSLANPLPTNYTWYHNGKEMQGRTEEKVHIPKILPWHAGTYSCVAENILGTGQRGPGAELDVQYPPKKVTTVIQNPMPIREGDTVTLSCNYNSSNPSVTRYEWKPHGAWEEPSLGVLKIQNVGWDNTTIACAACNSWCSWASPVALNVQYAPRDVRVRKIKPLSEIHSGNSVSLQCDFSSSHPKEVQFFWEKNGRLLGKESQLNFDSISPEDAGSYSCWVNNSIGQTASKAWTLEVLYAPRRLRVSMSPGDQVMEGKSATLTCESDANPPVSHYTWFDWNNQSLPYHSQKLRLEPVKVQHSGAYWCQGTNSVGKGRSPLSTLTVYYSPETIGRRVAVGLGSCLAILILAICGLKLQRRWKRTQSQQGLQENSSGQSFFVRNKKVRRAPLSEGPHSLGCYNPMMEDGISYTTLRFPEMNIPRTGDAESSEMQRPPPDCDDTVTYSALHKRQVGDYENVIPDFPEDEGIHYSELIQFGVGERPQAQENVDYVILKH

T3: murine CD22 protein (ACROBiosystems, SI2-M52Ha) (murine, UniProt P35329 22-708)
T3 construct: extracellular domain; also called murine CD22-ECD; murine CD22-ECD-His
T3 sequence (looked up): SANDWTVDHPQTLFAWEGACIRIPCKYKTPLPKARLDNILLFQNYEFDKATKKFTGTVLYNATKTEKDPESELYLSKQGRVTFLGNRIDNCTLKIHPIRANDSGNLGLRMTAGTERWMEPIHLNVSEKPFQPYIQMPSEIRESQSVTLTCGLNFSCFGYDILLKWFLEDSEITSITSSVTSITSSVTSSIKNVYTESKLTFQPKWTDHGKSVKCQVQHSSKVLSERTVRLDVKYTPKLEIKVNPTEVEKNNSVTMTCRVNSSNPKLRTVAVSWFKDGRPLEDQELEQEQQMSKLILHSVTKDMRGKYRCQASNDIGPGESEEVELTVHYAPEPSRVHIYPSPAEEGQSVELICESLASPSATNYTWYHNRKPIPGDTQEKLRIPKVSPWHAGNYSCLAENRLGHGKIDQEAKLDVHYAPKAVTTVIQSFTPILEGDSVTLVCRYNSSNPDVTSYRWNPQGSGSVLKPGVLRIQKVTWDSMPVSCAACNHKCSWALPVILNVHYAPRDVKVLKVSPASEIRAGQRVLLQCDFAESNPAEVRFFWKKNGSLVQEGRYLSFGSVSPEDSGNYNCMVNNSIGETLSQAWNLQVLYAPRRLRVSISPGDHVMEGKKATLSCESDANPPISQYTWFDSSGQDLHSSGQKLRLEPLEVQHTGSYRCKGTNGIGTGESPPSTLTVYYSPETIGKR


Assays:
[1] = biological target: T1, human CD22, endogenous on Raji cells; test: FACS, Raji cells
From the text: (§1) The required cells were scale-up cultured in a T-75 cell culture flask to the logarithmic growth phase. For the adherent cell CHO-K1, the medium was aspirated, the cells were washed 2 times with PBS buffer, and then digested with trypsin. After the digestion was terminated, the cells were washed 2 times with PBS buffer. For suspension cell Raji, the medium supernatant was directly centrifuged and discarded, and the cell pellet was washed 2 times with PBS. After counting the cells in the previous step, the cell pellet was resuspended with [PBS+2% (w/w) BSA] blocking solution to 2×10⁶ cells/ml, and added to a 96-well FACS reaction plate at 50 μl/well, and then the chimeric antibody test sample was added at 50 μl/well, and incubated on ice for 2 hours. The mixture was centrifuged and washed 3 times with PBS buffer, Alexa Flour 488-labeled secondary antibody (purchased from Invitrogen, catalog number: A-11013) was added at 50 μl/well, and incubated on ice for 1 hour. The obtained mixture was centrifuged and washed 5 times with PBS, and FACS (FACS Canto™, purchased from BD Company) was used for detection and result analysis. Data analysis was performed by software (CellQuest) to obtain the mean fluorescence density (MFI)of the cells. And then software (GraphPad Prism8) was used for analysis, data fitting, and EC50 value calculation. […] The same method was used to detect the binding of the chimeric antibodies to endogenous CD22-negative cell MoLT4 cells (purchased from ATCC, CRL-1582) and CHO-K1 cells.

[2] = biological target: T2, human CD22, full length, on …; test: FACS, CHO-K1-human CD22 2C4 cells
From the text: as §1

[3] = biological target: T3, murine CD22 protein (ACROBiosystems, …); test: ELISA, coated murine CD22, 10 nM Ab
Summary of the method: (§2)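 Read-out is TMB absorbance after a 30 min room-temperature development stopped with 1.0 N HCl. It reflects chimeric antibody bound to plate-coated CD22 (2 μg/mL), detected with an HRP-labelled secondary antibody. Antibody and secondary incubations each ran 2 h at 37° C.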

[4] = biological target: T3, murine CD22 protein (ACROBiosystems, …); test: ELISA, coated murine CD22, 0.1 nM Ab
Summary of the method: as §2

[5] = biological target: T3, murine CD22 protein (ACROBiosystems, …); test: ELISA, coated murine CD22, 100 nM Ab
Summary of the method: as §2

[6] = biological target: T3, murine CD22 protein (ACROBiosystems, …); test: ELISA, coated murine CD22, 0.01 nM Ab
Summary of the method: as §2

[7] = biological target: T3, murine CD22 protein (ACROBiosystems, …); test: ELISA, coated murine CD22, 0.001 nM Ab
Summary of the method: as §2

[8] = biological target: T3, murine CD22 protein (ACROBiosystems, …); test: ELISA, coated murine CD22, 0.0001 nM Ab
Summary of the method: as §2

[9] = biological target: T3, murine CD22 protein (ACROBiosystems, …); test: ELISA, coated murine CD22, 0.00001 nM Ab
Summary of the method: as §2

| EC50 [1] [nM] | Maximum mean fluorescence intensity [1] [MFI] | EC50 [2] [nM] | Maximum mean fluorescence intensity [2] [MFI] | OD450 [3] [OD450] | OD450 [4] [OD450] | OD450 [5] [OD450] | OD450 [6] [OD450] | OD450 [7] [OD450] | OD450 [8] [OD450] | OD450 [9] [OD450] | Binder |
| --- | --- | --- | --- | --- | --- | --- | --- | --- | --- | --- | --- |
| 0.8 | 19300 | 1.15 | 50200 | 0.06 | 0.05 | 0.07 | 0.05 | 0.05 | 0.05 | 0.06 | F2.343.16 human-murine chimeric antibody (antibody, human IgG1, lambda, V domains shown, Chimeric, human IgG1 / lambda; VL tied by name) VH: QVQLKQSGPGLVQPSQSLSITCTVSGFSLTGYGVQWVRQSPGKGLEWLGVIWGGGGTDYNAAFISRLNIIKDNSKSQVFFKMNSLQADDTAIYYCARYSKYGHFDVWGTGTAVTVSS VL: QAVVTQESALTTSPGETVTLTCRSSTGAVTTSNYANWVQEKPDHLFTGLIGGTYNRVPGVPARFSGSLIGDKAALTITGAQTEDEAIYFCALWYSNHFWVFGGGTKLTVLG |
| 0.59 | 24400 | 1.22 | 58500 | 0.07 | 0.06 | 0.1 | 0.05 | 0.05 | 0.06 | 0.06 | F2.127.11 human-murine chimeric antibody (antibody, human IgG1, lambda, V domains shown, Chimeric, human IgG1 / lambda; VL tied by name) VH: QVTLKESGPGILQPSQTLSLTCSFSGFSLSTFGMGVGWIRQPSGKGLEWLAHIWWDDDKHYNPALKSRLTISKDTSRNQVFLKIANVDTADGATYFCARDNWVSSLDYWGQGTSVIVSS VL: QPVITQSSSASFSLGASAELTCTLSSQHSTYTIEWYQQQPLKPPKYVMGLKKDGSHSTGDGIPDRFSGSSSGADRYLSISNIQPEDEAIYICGVSDTIKEQFVYVFGGGTKVTVLG |
| 0.38 | 15500 | 0.72 | 40200 | 0.06 | 0.05 | 0.07 | 0.05 | 0.05 | 0.05 | 0.06 | F2.205.9 human-murine chimeric antibody (antibody, human IgG1, lambda, V domains shown, Chimeric, human IgG1 / lambda; VL tied by name) VH: QVTLKESGPGILQPSQTLSLTCSFSGFSLSTSGMGVGWIRQPSGKGLEWLAHIWWDDDEYYNPALKSRLTISKDTSKNQVFLKIANVDTADTATYYCARISIPYGYYDWFFDVWGTGTTVTVSA VL: QAVVTQESALTTSPGETVTLTCRSSTGAVTTRNYANWVQEKPDHLFTGLIGGTNNRAPGVPARFSGSLIGDKAALTITGAQTEDEAIYFCALWYSNHFIFGSGTKVTVLG |
| 1.26 | 18800 | 3.28 | 37000 | 0.08 | 0.07 | 0.09 | 0.07 | 0.07 | 0.07 | 0.07 | F2.151.13 human-murine chimeric antibody (antibody, human IgG1, lambda, V domains shown, Chimeric, human IgG1 / lambda) VH: QVHLQQPGTELMKPGASVKLSCKATGYTFRDYWLEWVKQRPGHGLEWIGEILPGSGNAYYNEKFKGKATFTADTSSNTAYMQLSSLTTEDSAIYYCARVYSNWYFDAWGKGTTVTVSS VL: QAVVTQESALTTSPGETVTLTCRSSTGAVTTSNYANWVQEKPDHLFTGLIGGTNNQAPGVPARFSGSLIGDKAALTISGAQTEDEAIYFCALWFSNHWVFGGGTKLTVLG |
| 0.59 | 18100 | 0.83 | 44800 | 0.06 | 0.05 | 0.07 | 0.06 | 0.05 | 0.05 | 0.06 | F2.99.1 human-murine chimeric antibody (antibody, human IgG1, lambda, V domains shown, Chimeric, human IgG1 / lambda; VL tied by name) VH: QVTLKESGPGILQPSQTLSLTCSFSGFSLSTFPMGVGWIRQPSGKGLEWLAHIWWDDDEYYNPVLKSRLTISKDTSKKQVYLRIANVDTVDTATYYCTRANWDRWYFDVWGTGTTVTVSS VL: QLVLTQSSSASFSLGASAKLTCTLSRQHSAYTIEWYQQQPLKPPKYVMEVKKDGSHSTGDGIPDRFSGSSSGADRYLSISNIQPEDEAIYICGVGDTIKEHFVFGGGTKVTVLG |
| 0.33 | 16700 | 0.87 | 41000 | 0.08 | 0.08 | 0.09 | 0.07 | 0.07 | 0.08 | 0.08 | F2.42.9 human-murine chimeric antibody (antibody, human IgG1, lambda, V domains shown, Chimeric, human IgG1 / lambda; VL tied by name) VH: QVTLKESGPGILQPSQTLSLTCSFSGFSLSTFDRGVGWIRQPSGKGLEWLAHIWWNDKKFYNPVLKSRLTISKDTSKNQVFLTIANVDSADTATYSCARIVWDKYYFDYWGQGIPLTVSS VL: QLVLTQSSSASFSLGASAKLTCTLSSQHSAYTIEWYQQQPLKPPKFVMDLKKDGSHSTGDGIPARFSGSSSGADRYLTISNIQPEDEAIYICGVGDTIKEQYVFGGGTKVTVLG |
| 0.41 | 18600 | 0.82 | 42000 | 0.06 | 0.06 | 0.09 | 0.05 | 0.05 | 0.06 | 0.06 | F2.55.1 human-murine chimeric antibody (antibody, human IgG1, lambda, V domains shown, Chimeric, human IgG1 / lambda; VL tied by name) VH: QVTLKESGPGILQPSQTLSLTCSFSGFSLSTFPLGVGWIRQPSGKGLEWLAHVWWNDDDYYNPALKSRLTISKDTSNTRVFLSVASVDTAETATYYCARLNWDRWYFDVWGTGTTVTVSS VL: QLVLTQSSSASFSLGASAKLTCTLSSQHSAYTVEWYQQQPLKPPKYVMELKKDGSHSTGDGIPDRFSGSSSGADRYLSISNIQPEDEAIYICGVGDTVKEQFVFGGGTKVTVLG |
